# Test results published in US20120058906A1.
# Tests used:
# [1] = target: rHuman Erythropoietin R/Fc Chimera, CF (R&D Systems Cat#963-ER) (human) (UniProt P19235); assay: ECL (MSD multi-spot), Fab 580 nM; blank 679
# [2] = target: rHuman P-Cadherin/Fc Chimera, CF (R&D Systems Cat#861-PC) (human) (UniProt P22223); assay: ECL (MSD multi-spot), Fab 580 nM; blank 679
# [3] = target: rHuman Notch-1/Fc Chimera, CF (R&D Systems Cat#3647-TK) (human) (UniProt P46531); assay: ECL (MSD multi-spot), Fab 580 nM; blank 679
# [4] = target: rHuman HGF R/c-MET/Fc Chimera, CF (R&D Systems Cat#358-MT/CF) (human) (UniProt P08581); assay: ECL (MSD multi-spot), Fab 580 nM; blank 679
# [5] = target: rHuman IGF-1 sR (IGF-1 sR), CF (R&D Systems Cat#391-GR) (human) (UniProt P08069); assay: ECL (MSD multi-spot), Fab 580 nM; blank 679
# [6] = target: rHuman ErbB2/Fc Chimera, CF (R&D Systems Cat#1129-ER) (human) (UniProt P04626); assay: ECL (MSD multi-spot), Fab 580 nM; blank 679
# [7] = target: rHuman EGF R/Fc Chimera, CF (R&D Systems Cat#344-ER) (human) (UniProt P00533); assay: ECL (MSD multi-spot), Fab 580 nM; blank 679
# [8] = target: rHuman Erythropoietin R/Fc Chimera, CF (R&D Systems Cat#963-ER) (human) (UniProt P19235); assay: ECL (MSD multi-spot), Fab 36.3 nM; blank 314
# [9] = target: rHuman P-Cadherin/Fc Chimera, CF (R&D Systems Cat#861-PC) (human) (UniProt P22223); assay: ECL (MSD multi-spot), Fab 36.3 nM; blank 314
# [10] = target: rHuman Notch-1/Fc Chimera, CF (R&D Systems Cat#3647-TK) (human) (UniProt P46531); assay: ECL (MSD multi-spot), Fab 36.3 nM; blank 314
# [11] = target: rHuman HGF R/c-MET/Fc Chimera, CF (R&D Systems Cat#358-MT/CF) (human) (UniProt P08581); assay: ECL (MSD multi-spot), Fab 36.3 nM; blank 314
# [12] = target: rHuman IGF-1 sR (IGF-1 sR), CF (R&D Systems Cat#391-GR) (human) (UniProt P08069); assay: ECL (MSD multi-spot), Fab 36.3 nM; blank 314
# [13] = target: rHuman ErbB2/Fc Chimera, CF (R&D Systems Cat#1129-ER) (human) (UniProt P04626); assay: ECL (MSD multi-spot), Fab 36.3 nM; blank 314
# [14] = target: rHuman EGF R/Fc Chimera, CF (R&D Systems Cat#344-ER) (human) (UniProt P00533); assay: ECL (MSD multi-spot), Fab 36.3 nM; blank 314
# [15] = target: rHuman IGF-1 sR, CF (R&D Systems Cat#391-GR) (human) (UniProt P08069); assay: ECL (MSD multi-spot) screen, antigen spotted on plate, Fab at 0.58 uM; blank spot 403
# [16] = target: rHuman HGF R/c-MET/Fc Chimera, CF (R&D Systems Cat#358-MT/CF) (human) (UniProt P08581); assay: as above
# [17] = target: rHuman ErbB2/Fc Chimera, CF (R&D Systems Cat#1129-ER) (human) (UniProt P04626); assay: as above
# [18] = target: rHuman EGF R/Fc Chimera, CF (R&D Systems Cat#344-ER) (human) (UniProt P00533); assay: as above
# [19] = target: rHuman Erythropoietin R/Fc Chimera, CF (R&D Systems Cat#963-ER) (human) (UniProt P19235); assay: ECL (MSD multi-spot), Fab 9.1 nM; blank 276
# [20] = target: rHuman P-Cadherin/Fc Chimera, CF (R&D Systems Cat#861-PC) (human) (UniProt P22223); assay: ECL (MSD multi-spot), Fab 9.1 nM; blank 276
# [21] = target: rHuman Notch-1/Fc Chimera, CF (R&D Systems Cat#3647-TK) (human) (UniProt P46531); assay: ECL (MSD multi-spot), Fab 9.1 nM; blank 276
# [22] = target: rHuman HGF R/c-MET/Fc Chimera, CF (R&D Systems Cat#358-MT/CF) (human) (UniProt P08581); assay: ECL (MSD multi-spot), Fab 9.1 nM; blank 276
# [23] = target: rHuman IGF-1 sR (IGF-1 sR), CF (R&D Systems Cat#391-GR) (human) (UniProt P08069); assay: ECL (MSD multi-spot), Fab 9.1 nM; blank 276
# [24] = target: rHuman ErbB2/Fc Chimera, CF (R&D Systems Cat#1129-ER) (human) (UniProt P04626); assay: ECL (MSD multi-spot), Fab 9.1 nM; blank 276
# [25] = target: rHuman EGF R/Fc Chimera, CF (R&D Systems Cat#344-ER) (human) (UniProt P00533); assay: ECL (MSD multi-spot), Fab 9.1 nM; blank 276
# [26] = target: rHuman Erythropoietin R/Fc Chimera, CF (R&D Systems Cat#963-ER) (human) (UniProt P19235); assay: ECL (MSD multi-spot), Fab 145 nM; blank 357
# [27] = target: rHuman P-Cadherin/Fc Chimera, CF (R&D Systems Cat#861-PC) (human) (UniProt P22223); assay: ECL (MSD multi-spot), Fab 145 nM; blank 357
# [28] = target: rHuman Notch-1/Fc Chimera, CF (R&D Systems Cat#3647-TK) (human) (UniProt P46531); assay: ECL (MSD multi-spot), Fab 145 nM; blank 357
# [29] = target: rHuman HGF R/c-MET/Fc Chimera, CF (R&D Systems Cat#358-MT/CF) (human) (UniProt P08581); assay: ECL (MSD multi-spot), Fab 145 nM; blank 357
# [30] = target: rHuman IGF-1 sR (IGF-1 sR), CF (R&D Systems Cat#391-GR) (human) (UniProt P08069); assay: ECL (MSD multi-spot), Fab 145 nM; blank 357
# [31] = target: rHuman EGF R/Fc Chimera, CF (R&D Systems Cat#344-ER) (human) (UniProt P00533); assay: ECL (MSD multi-spot), Fab 145 nM; blank 357
# rHuman Erythropoietin R/Fc Chimera, CF (R&D Systems Cat#963-ER) (human), sequence (P19235 25-250, change not shown): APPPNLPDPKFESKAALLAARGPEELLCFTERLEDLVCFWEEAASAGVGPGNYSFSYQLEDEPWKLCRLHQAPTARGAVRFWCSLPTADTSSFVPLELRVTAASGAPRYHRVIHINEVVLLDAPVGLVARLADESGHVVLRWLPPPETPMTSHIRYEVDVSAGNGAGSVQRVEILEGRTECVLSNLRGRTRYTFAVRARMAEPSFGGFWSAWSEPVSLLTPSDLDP
substance,measurement,setting,value
Fab VH4-34_IGHD7-27*01_IGHJ4*01 & V1-4_IGLJ4*01,ECL signal,[1],1580 ECL signal
same,ECL signal,[2],2240 ECL signal
same,ECL signal,[3],1580 ECL signal
same,ECL signal,[4],2340 ECL signal
same,ECL signal,[5],1360 ECL signal
same,ECL signal,[6],1710 ECL signal
same,ECL signal,[7],1630 ECL signal
same,ECL signal,[8],722 ECL signal
same,ECL signal,[9],684 ECL signal
same,ECL signal,[10],633 ECL signal
same,ECL signal,[11],1060 ECL signal
same,ECL signal,[12],799 ECL signal
same,ECL signal,[13],1030 ECL signal
same,ECL signal,[14],831 ECL signal
same,ECL signal,[15],1200
same,ECL signal,[16],1710
same,ECL signal,[17],1260
same,ECL signal,[18],1020
same,ECL signal,[19],697 ECL signal
same,ECL signal,[20],589 ECL signal
same,ECL signal,[21],754 ECL signal
same,ECL signal,[22],894 ECL signal
same,ECL signal,[23],788 ECL signal
same,ECL signal,[24],987 ECL signal
same,ECL signal,[25],800 ECL signal
same,ECL signal,[26],845 ECL signal
same,ECL signal,[27],850 ECL signal
same,ECL signal,[28],860 ECL signal
same,ECL signal,[29],1170 ECL signal
same,ECL signal,[30],794 ECL signal
same,ECL signal,[31],856 ECL signal
